Assay [1] deals with 50S ribosomal subunit of E. coli (E. coli) (UniProt P0A7L0). As to the kind of experiment: stopped-flow Rayleigh light scattering of subunit association; 30S-preIC (0.25 µM final; mRNA, fMet-tRNAfMet, IF1, IF2, GTP) mixed with 50S (0.25 µM final) preincubated with ObgE or ObgE-NG; HEPES polymix buffer pH 7.5, 37°C; Ki from the midpoint of k obs against concentration.
Assay [2] shares this target.
Assay [3] has the same target. As to the kind of experiment: stopped-flow Rayleigh light scattering of subunit association; naked 30S (0.25 µM final) mixed with 50S (0.25 µM final) preincubated with ObgE or ObgE-NG (0.5-20 µM in the mix); HEPES polymix buffer pH 7.5, 37°C; Ki from the midpoint of k obs against concentration.
Assay [4] shares this target. The assay is described as follows: co-sedimentation; as a1, with 0.5 mM ppGpp.

pKi: −log10 of the molar value. Some results are limits rather than exact numbers.

What is called pKi is the Ki on a negative log10 scale, so that one unit is a factor of ten.

Chain of UniProt P0A7L0 (P0A7L0 whole entry, looked up): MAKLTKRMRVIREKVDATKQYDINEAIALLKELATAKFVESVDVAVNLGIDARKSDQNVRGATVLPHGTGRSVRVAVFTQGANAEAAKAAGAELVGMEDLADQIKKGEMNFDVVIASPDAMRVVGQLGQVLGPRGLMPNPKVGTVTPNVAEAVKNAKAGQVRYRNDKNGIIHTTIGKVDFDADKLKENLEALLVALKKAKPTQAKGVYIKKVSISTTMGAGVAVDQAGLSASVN

“mRNA programmed 30S-preinitiation complex (30S-preIC) (from UniProt P69222 1-72; P0A705 1-890)” had a k obs of subunit association (without ObgE) in assay [1] of 20 s⁻¹.

In the case of “ObgE (Obg protein in Escherichia coli), full-length, His-tagged (from UniProt P42641 1-390) (enzyme)”, the figures for the negative logarithm of the Ki (pKi) in assay [1] and in assay [3] were 6.52 and 5.70, respectively. In assay [2], this substance displayed a GTP hydrolysis rate of ObgE (MESG assay, phosphate release) with increasing amounts of 50S subunits up to an equal amount; without 50S ∼0.0268 min^−1; stimulated about 120-fold of 3.15 min⁻¹. In addition, the fold occupancy on the 50S subunit against the apo state in assay [4] was greater than 5 fold.

In assay [3], “30S ribosomal subunit of E. coli (naked 30S subunit) (complex)” had a k obs of subunit association (without ObgE) of 4 s⁻¹.

For the substance “ObgE-NG (CTD deleted construct of ObgE, residues 1-340) (from UniProt P42641 1-340) (domain or fragment)”, the figures for the pKi in assay [1] and in assay [3] were 6.00 and 5.43, respectively.

For the origin of these results see publication PMC4028186.
